Consider three molecules from paper PMC4574351, “Tubulin cofactors and Arl2 are cage-like chaperones that regulate the soluble αβ-tubulin pool for microtubule dynamics” (eLife, 2015).

The target in experiment [1] is TBC-DEG:αβ-tubulin complex (S. cerevisiae | porcine) (UniProt P40987). Description: SEC-MALS; WTC-03S5 column; purified TBC-DEG (subunits co-expressed and co-purified), αβ-tubulin, TBCC and their complexes; ternary complex with GDP·ALFx (wild type) or GTP (Q73L). (Size exclusion chromatography separates by hydrodynamic size, large species first.)
Experiment [2] has the same target.
Experiment [3] shares this target. The source holds these as a separate data set.
The target of experiment [4] is T1, Tubulin cofactor D (TBCD), S. cerevisiae Cin1p (S. cerevisiae), P40987.
T1 chain: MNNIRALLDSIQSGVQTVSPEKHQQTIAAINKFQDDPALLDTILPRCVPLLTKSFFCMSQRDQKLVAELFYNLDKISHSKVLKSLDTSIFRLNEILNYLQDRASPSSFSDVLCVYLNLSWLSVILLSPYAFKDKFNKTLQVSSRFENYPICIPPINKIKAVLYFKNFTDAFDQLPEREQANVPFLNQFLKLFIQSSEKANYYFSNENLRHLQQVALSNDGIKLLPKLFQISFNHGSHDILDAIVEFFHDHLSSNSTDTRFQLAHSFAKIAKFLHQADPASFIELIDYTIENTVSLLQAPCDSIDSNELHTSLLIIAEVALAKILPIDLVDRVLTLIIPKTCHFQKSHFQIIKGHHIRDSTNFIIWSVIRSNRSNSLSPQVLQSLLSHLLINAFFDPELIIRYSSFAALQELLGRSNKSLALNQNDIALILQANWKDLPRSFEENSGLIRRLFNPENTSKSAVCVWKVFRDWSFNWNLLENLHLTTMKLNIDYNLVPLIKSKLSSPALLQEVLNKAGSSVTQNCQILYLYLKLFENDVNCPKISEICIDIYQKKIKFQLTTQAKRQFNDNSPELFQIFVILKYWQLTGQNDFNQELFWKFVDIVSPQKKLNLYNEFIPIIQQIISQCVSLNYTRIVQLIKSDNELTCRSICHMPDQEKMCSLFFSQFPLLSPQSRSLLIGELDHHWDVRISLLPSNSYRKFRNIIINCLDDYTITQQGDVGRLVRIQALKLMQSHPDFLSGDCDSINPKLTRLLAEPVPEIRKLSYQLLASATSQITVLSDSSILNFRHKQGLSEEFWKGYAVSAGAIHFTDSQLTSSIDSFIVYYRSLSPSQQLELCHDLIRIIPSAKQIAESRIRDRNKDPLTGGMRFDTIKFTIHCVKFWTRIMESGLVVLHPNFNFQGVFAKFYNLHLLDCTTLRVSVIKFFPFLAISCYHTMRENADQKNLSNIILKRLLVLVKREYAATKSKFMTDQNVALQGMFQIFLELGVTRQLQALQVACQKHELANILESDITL
Description: SEC-MALS; WTC-03S5 column; purified TBC-DEG (subunits co-expressed and co-purified), αβ-tubulin, TBCC and their complexes; ternary complex with GDP·ALFx (wild type) or GTP (Q73L). The following applies: remark: other sources report otherwise.

B1: Tubulin cofactor C (TBCC), S. cerevisiae Cin2p (natural protein)
chain: MDFTAKIKELERELSETSDYKTLQKKTISLRSELNTLSHSLTSYEKEHFSNDIENVLKSINAKLSESKGKKRLFSFKQKNSSSAVHKNVERTELANAPAYTTTLKKHYVLEKGDSAFENLEFCTVTSTTDYSGNSALSGSLCFRNITKCVINLQRIFFQTGSIFITDCTDSIIFLRSPSDKDFQIRLRDLKNCKILIEKLSPSIDCKQVVIIENCHKCIFNASTRDHLIIQDFSNPFQSEETEDNSAFAFEDFDICNKDTMQLFRAYL
Consider B1, for which the stoichiometry N (in general, the number of molecules, sites or subunits per partner or assembly) in experiment [1] is 1. The same molecule returned a steady-state GTP hydrolysis kcat, equimolar αβ-tubulin and TBCC added to TBC-DEG (number as in the text) in experiment [2] of 0.0308 s⁻¹. The same molecule registered a steady-state GTP hydrolysis kcat (malachite green), 1 μM TBC-DEG:1 μM TBCC:1 μM αβ-tub in experiment [3] of 31300 M⁻¹ s⁻¹.

B2: TBCC C-terminal β-helix domain (residues 100-267) (domain or fragment)
chain: YTTTLKKHYVLEKGDSAFENLEFCTVTSTTDYSGNSALSGSLCFRNITKCVINLQRIFFQTGSIFITDCTDSIIFLRSPSDKDFQIRLRDLKNCKILIEKLSPSIDCKQVVIIENCHKCIFNASTRDHLIIQDFSNPFQSEETEDNSAFAFEDFDICNKDTMQLFRAY
Molecule B2 displayed a steady-state GTP hydrolysis kcat, 1 μM TBC-DEG:1 μM TBCC-Cterm:1 μM αβ-tub in experiment [3] of 18800 M⁻¹ s⁻¹.

B3: Tubulin cofactor E (TBCE), S. cerevisiae Pac2p, P39937 1-518 (natural protein)
chain: MTYEIGDRLKIGGYFCTIKFIGVIKPWPSVKAYGVEWDDHSRGKHSGTIDDIHYFDVQIPNSGSFLKESKIKSPGVRRITFYEALSEKYGGSSNNINDLSIGNKRVEGLGFDELNARNKNYKKLRKIALRDSDVAILFQNQDELNRVIQNCVNVKDLDLSLNLFTNINSLCEFIEPLKNLESLNISQNKLLSGWDNLKEYDLSHIKTLRLSSCGLSYKHIGKLLKSFRTLKMLDLSYNNLTSAGIQNFENEIPCTLEELNISGNNLISFPLFPKNLTLKGLNVSNNQISRAPSIAIYSVESLDITDNKFKERSLIDDLNKTFPSLKNIHLSGNEFNYNGNYINVEEQATFYEVLARFDRVMVLNGSICDVKTRREAEMFFVSKVMNNELSYDTNLPRWSSLIKSYEIDMSKLSFNNERETRQSLVLKIKIRAGKKPSSDLDYWVLPSFTVRYVKSVICRKLNFDILNVKLFHENSEGMINEIKYNFRPISDFNVVNGDIIHVSSPVNNKSIQKVNSPS
In turn, B3 showed a stoichiometry N in experiment [4] of 1.
